Series [1] has as its target Lactate dehydrogenase (LDH) from rabbit muscle (rabbit) (UniProt P13491).
Series [2] shares this target. The source holds these as a separate data set.
Series [3] has the same target. In words: SEC; 2 µM luciferase (45 °C) or LDH (55 °C) heat shocked 15 min with 20 µM HSPB1 construct, or the HSPB1 construct heat shocked alone; analysed at the start (0 h) of the disaggregation reaction; Superose 12, reaction buffer, 4 °C; fractions detected by immunoblot. (SEC sorts molecules by how far they enter the pores of the column.)
The target of series [4] is HSPB1-3D (UniProt P04792). The series is described as above.
Series [5] concerns the target Lactate dehydrogenase (LDH) from rabbit muscle (rabbit) (UniProt P13491). In words: SEC; native luciferase or LDH alone; Superose 12 10/300 GL, reaction buffer, 4 °C; 1 mL fractions detected by immunoblot.

Substance “HSPB1-3D (from UniProt P04792 1-205) (natural protein)” yielded a decrease of the optical density at 320 nm (light scattering) of 2 µM LDH aggregating at 55 °C with 20 µM HSPB1-3D, against LDH alone in series [1] of 90%.
“HSPB1-3D-GxG (from UniProt P04792 1-205) (natural protein)”: the decrease of the optical density at 320 nm (light scattering) of 2 µM LDH aggregating at 55 °C with 20 µM HSPB1-3D-GxG, against LDH alone in series [2] turned out to be 95%. The substance further had a percent of HSPB1-3D-GxG in the large molecular size fractions after heat shock with LDH in series [3] of 20%.
Consider “Lactate dehydrogenase (LDH) from rabbit muscle”, for which, in series [4], the “percent of total HSPB1-3D in the high molecular size fractions (7-9 mL) after heat shock with the substrate” value is ~ 20% and 40%, respectively, of the total amount of HSPB1-3D was found in high molecular size fractions.
The term stoichiometry N denotes a count of units in the complex or per binding partner. As to “Lactate dehydrogenase (LDH) from rabbit muscle (from UniProt P13491 1-332) (enzyme)”, the stoichiometry N in series [5] is 4.

The values are drawn from PMC8384840.
